Experimental data reported in the nanobody polyreactivity screen of Harvey et al. (2022).

Experiment: yeast display, Sf9 membrane polyspecificity reagent, FACS + sequencing; frameworks hold sequencing errors
In short: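 Nanobodies from a synthetic yeast display library (Saccharomyces cerevisiae BJ5465), induced 36–48 hours with galactose, were stained 1 hour at 4 °C with 10% biotinylated, detergent-solubilized Sf9 membrane reagent, enriched on streptavidin microbeads, then FACS-sorted. Anti-HA (expression) and streptavidin (reagent binding) fluorescence set low and high (top ~1%) gates. Polyreactivity labels come from the gate of origin. Genes were colony-PCR amplified, MiSeq 2 × 250 sequenced and filtered by CDR length.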
For “QVQVVESGGGLVQAGGSLRLSCAASGRIFNYNAMGWYRQAPGKERELVAAITRSGGSTYYADSVKGRFTISRDNAKNTVFLQMNSLKPEDTAVYYCNKRYIPWAYDYWGQGTQVTVSS”, the “polyreactivity (PSR sort gate)” value was “high polyreactivity”.
In the case of “QVQLVESGGGLVQAGGSLRLSCAASGRTFGPYAMGWYRQAPGKEREFVAAISYSGGSTYYADSVKGRFTISRDNAKNTVYLQMNSLKPEDTAVYYCAAETYYGRIYWYIRDYWGQGTQVTVSS”, the “polyreactivity (PSR sort gate)” value is reported as “low polyreactivity”.
In the case of “QVQLVESGGGLVQAGGSLRLSCAASGSTSYNMGWYRQAPGKERELVAAISYRGGRTYYADSVKGRFTISRDNAKNTVYLQMNSLKPEDTAVYYCAKGIFDTFDSWGQGTQVTVSS”, the “polyreactivity (PSR sort gate)” value is reported as “low polyreactivity”.
For “QVQLVESGGGLVQAGGSLRLSCAASGLIFGTNAMGWYRQAPGKERELVAAISGSGGRTYYADSVKGRFTISRDNAKNTVYLQMNSLKPEDTAVYYCATAWYLGRYRRLGYWGQGTQVTVSS”, the “polyreactivity (PSR sort gate)” value was “high polyreactivity”.
With “QVQLLESGGGLVKAGGSLRLSCAASGFTFYRYAMGWYRQAPGKERELVATINYSGGGTYYADSVKGRFTISRDNAKHTVYLQMNSLKPEDTAVYDCAAEDFDYAVLYDYWGQGTQVTVSS” the “polyreactivity (PSR sort gate)” value was “high polyreactivity”.
In the case of “QVQLVESGGGLVQAGGRLRLSCPASGSIFGGYAMGWYRQAPGKERELVAGITRSGGSTYYADSVKGRFTISRYNAKNTVYFQMNSLKPEDTAVYYCAVEIQFYRSPRKVRSYDYWGQGTQVTVSS”, the “polyreactivity (PSR sort gate)” value is reported as “low polyreactivity”.
For “QVQLVESGGGLVQAGGSLRLSCAASGRILTGYAMGWYRQAPGKERELVAAISNDTDSTHYADSVKGRFTISRDNAKNTVYLQMNSLKPEDTAVYYCATDAPLQKRWRRFDYWGQGTQVTVSS”, the “polyreactivity (PSR sort gate)” value was “low polyreactivity”.
For “QVQLVESGGGLFQAGGSLRLICAASGRTFVVYAMGSYRQAPGKEWELVAAISWSGGRTYYADSVKGRFTMSRDNAKNTVYLQMNTLKPEDTAVYYCPAEVYLYKYVYYYWGQGTQVTVSS”, the “polyreactivity (PSR sort gate)” value was “high polyreactivity”.
In the case of “QVQLVESGGGLVQAGGSLRLSCAASGSTFPSNAMGWYRQAPGKESELVAAISDSGSTTYYADSVKGRFTISRDNAKNTVYLQMNSLKPEDTAVYYCNAYLRFVDVSLDYQLLLEHDYWGQGTQVTVSS”, the “polyreactivity (PSR sort gate)” value is reported as “low polyreactivity”.
For “QVQLVESGGGLVQAGGSLRLICAASGFIFRTNAMGWYRQAPGKQRELVAAISRSGNTYYADSVKGRFTISRDNAKNTVYLQMNSLKPEDTAVYYCAAQSVRWYSTFKYYYWGQGTQVTVSS”, the “polyreactivity (PSR sort gate)” value was “high polyreactivity”.
In the case of “QVQLVESGGGLVQAGGRLSLSCAASGFIFDYYSMGWYRQAPGKERELVAAISWSGGSTYYADSVKGRFTISRDNAKNTVYLQMNSLKPEDTAVYYCNTYYQGYWGDFDYWGQGTQVTVSS”, the “polyreactivity (PSR sort gate)” value is reported as “high polyreactivity”.
With “QVQLVESGGGLVQAGGSLRLSCAASGRIFYYYAMGWYRQAPRKERELVASINSGGSTYYADSVKGRFTISRDNAKNTVYLQMNSMKPEDTAVYYCAAGFQLVKGYLSGRAAYYYWGQGTQVTVSS” the “polyreactivity (PSR sort gate)” value was “high polyreactivity”.
With “QVQLVESGGGLVQAGGSLRLSCAASGNTFAENDMGWYRQAPGKERELVAAITYSGGDTYYADSVKGRFTISRDNAKNTVYLQMNSLKPEDTAVYYCAADNGSKEFDYWGQGTQVTVSS” the “polyreactivity (PSR sort gate)” value was “low polyreactivity”.
With “QVHLVESGGGLVQAGGSLRLSCAASGRIFDGYDMGWYRQAPGKERELVAAITSVGSTNYADSVKGRFTISRDNAKNTVYLQMNSLKPEDTAVYYCAAVLYVFDDEYGYLEYFSQYDYWGQGSQVTVSS” the “polyreactivity (PSR sort gate)” value was “low polyreactivity”.
For “QVQLVVSGGGLVQAGGSLRLSCAASGYIFVYNAMGWYRQAPGKERELVSAITDGGGSTYADSVKGRFTISRDNAKNTVYLQMNSLKPEDTAVYYCAALYSDTTWYVLYYYWGQGTQVTVSS”, the “polyreactivity (PSR sort gate)” value was “low polyreactivity”.
For “QVQIVESGGGLVQAGGTLRLSCAASGLTFAYYDMGWYSQAPGKERELVAAITSVGTTNYADSVKGRFSISRDNSKNTVYLKMNSLKPEDTAVYYCNADYFSRIVGDRIYDYCGQGTQVTVSS”, the “polyreactivity (PSR sort gate)” value was “low polyreactivity”.
In the case of “QVQLVESGGRLVQAGGSLRLSCAASGSTFYPYAMGWYRQAPGKERELVAAINGNGGRTYYADSVKGRFTISRDNAKNTVYLQMNSLKPEDTAVFYCAVVRVAWGHRSDYWGQGTQVTVSS”, the “polyreactivity (PSR sort gate)” value is reported as “high polyreactivity”.
With “QVQLVESGGGLVQAGGSLRLSCAASGFTFYGYTMGWYRQAPGKERELVAAISRSGGRTYYADSVKGRFTISRDNAKNTVYLQMNSLKPEDTAVYYCAGDSRTNGYDYWGQGTQVTVSS” the “polyreactivity (PSR sort gate)” value was “high polyreactivity”.
In the case of “QVQLVETGGGLVQAGGSLRLSCAASGFTFSFYTMGWYRQAPGKERELVAAISRRGGSTYYADSVKGRFTISRDNAKNTVYLQMNSLKPEDTAVYYCPTDHIPSVGDDYWGQGTQVTVSS”, the “polyreactivity (PSR sort gate)” value is reported as “high polyreactivity”.
With “QVQLVESGGGLVQAGGSLRLSCAASGSTFSRNAMGWYRQAPGKERELVAAITSGGRTYYADSVKGRFTISRDNAKNTVYLQMNSLKPEDTAVYYCAAVHRYPIHYDYWGQGTQVTVSS” the “polyreactivity (PSR sort gate)” value was “low polyreactivity”.
For “QVQLVESGGGLVQAGGSLRLSCAASGSTFWTNAMGWFRHAPGKVRELVATISKTTGRTNYADSEKGRFTISRDNAKNTVYLQMNSLKPEDTAVYYCAAEPYSWDTWVDYDYWGIGTQVTVSS”, the “polyreactivity (PSR sort gate)” value was “low polyreactivity”.
With “QVQRVDSGGGIVQAGGSLRLSCADSGSIFNRYAMGWYRQAPGKERELFAAISSSSGSTYYADSVKGRFTISRDNSKNTVYLQMNSLKPEDTAVYYCATRRKVVPTQVGYYYRGGVDYWGQGTQVTVSS” the “polyreactivity (PSR sort gate)” value was “high polyreactivity”.
With “QVQLVESGGGLVQAGGSLRLSCAASGITFTPYALGWSRPAPGKERELVAAISASGGNTYYADSVKGRFTISRDNAKNTVYLQMNSLKPDDTAVYYCAAVVAFATGTYYYWGQGTQVTVSS” the “polyreactivity (PSR sort gate)” value was “high polyreactivity”.
With “QVQLVESGGGLVQAGGSLRLSCAASGITLWQSAKGWYRQAPGKERELVAGITDTGDSTYYADSVKGRFTISRDNAKNTVYLQMNSLKPEDTAVYYCAVPRSALLRAPYELYSWGQGTQVTVSS” the “polyreactivity (PSR sort gate)” value was “low polyreactivity”.
In the case of “QDQHVESGGGLVQARGTLRLSCAASGFTFYHYAMGWSRQAPGTERELVAGISHRGASTYYADSVKGRFTISRDNAKNTVYLQMNSLKPEDTAVYYCNAYRPYRNHALIGDGYWGQGTQVTVSS”, the “polyreactivity (PSR sort gate)” value is reported as “high polyreactivity”.
With “QVQLVESGGGLVQAGGSLRLSCAASGSILDYYVMGWYSQAPGKERELVAAIRGGGSTYYADSVKARFTISRDNAKNTVYLQMNSLKPEDTAVYYCAKDSQTARDFDYWGQGTQVTVSS” the “polyreactivity (PSR sort gate)” value was “low polyreactivity”.
In the case of “QVQLVESGGGLVQAGGSLRLSCAASGLTFVRYAMGWYRQAPGKERELVAVISYSGARTYYADSVKGRFTISRDNAKNTVYLQMNSLKPEDTAVYYCAARQYTTGKYDSWGQGTQVTVSS”, the “polyreactivity (PSR sort gate)” value is reported as “high polyreactivity”.
With “QVQLVESGGGLVQAGGSLRLSCAASGSTFSNNAMGWYRQAPGNERELVAAISRSGGSTYYADSVKGRFTISRDNAKNTVYLQMNSLKPEDTAVYYCAVSPRYYRNGGAHLQYDYWGQGTHVTVSS” the “polyreactivity (PSR sort gate)” value was “high polyreactivity”.
For “QVQLVESGGGLVQAGGSLRLSCAASGSTFQINAMGWYRQATGTERELGAAIDGGGDTYYADSVKGRFTISRDNAKNTFYLQMNSLKPEDTAVYYCNARSWARKSNGGSRIRYDYWGQGTQVTVSS”, the “polyreactivity (PSR sort gate)” value was “low polyreactivity”.
For “QVQLVESGGGLVQAGGSLRLSCADSGFIIGRYTMGWYRQAPGKERELVAAISFRGGSTYYADSVKGRFTISRDNAKNTVYLQMNCLKPEDTAVYYCAAYSSGPYGFDYWGQGTQVTVSS”, the “polyreactivity (PSR sort gate)” value was “high polyreactivity”.
With “QVQLVESGGGLVQAGGSLRLSCAASGRTFSDYAMGWYRQAPAKERELVAAISKSGGRTYYADSVKGRFTISRDNAKNTVYLQMNSLKPEDTAVYYCAADPLTELAFYSWGQGTQVTVSS” the “polyreactivity (PSR sort gate)” value was “high polyreactivity”.
With “QVQLVESGGGLVQAGGSLRLSCAASGRTFSYYAMGWYRQAPGKERELVAAITSSGGRTTYADSVKGRFTISRDNAKNTVYLQMNSLKPEDTAVYYCAARHTYQGPGTYPMYYWGQGTQVTVSS” the “polyreactivity (PSR sort gate)” value was “high polyreactivity”.
With “QVQLVESGGGLVQAGGSLRLSCAASGGIFTSNAMGWYRQAPGKERELVAAITKNGGRTYYADSVKGRFTISRDNAKNTVYLQMNSLKPEDTAVYYCNAAVTFRCYDYWGQGTQVTVSS” the “polyreactivity (PSR sort gate)” value was “high polyreactivity”.
In the case of “QVQLVESGGGLVQAGGSLRLSCAASGRIFYYYDMGWYRQAPGKERELVAAINYSGGSTYYADSVKGRFTISRDNAKNTVYLQMNSLKPEDTAVYYCAADGYYYYSYGTTDQDDYWGQGTQVTVSS”, the “polyreactivity (PSR sort gate)” value is reported as “low polyreactivity”.
With “QVQLVESGGGLVQAGGSLRLSCAASGRIFVNYAMGWYRQEPGKERELVAAITSDGSTSYADSVKGRFTISRDTAKNTVYLQMNSLKPDDPAVYYCAKDFFEHSPVSHTYSSSKYDYWGEGTQVTVSS” the “polyreactivity (PSR sort gate)” value was “low polyreactivity”.
In the case of “QVQLVESGGGLVQAGGSLRLSCAASGRIFQYYAMGWYRQAPGKERELVAAISRTGSTYYADSVKGRFTISRDNGKNTVYLQMNRLNPEDTAVYYCAADYWPQSNRWVYFRYGYWGQGTQVTVSS”, the “polyreactivity (PSR sort gate)” value is reported as “high polyreactivity”.
In the case of “QVQLEESGGGLVQAGGSLRLSCAASGFTFSTNSMGWYRPAPGKERELVAAISRGGSTNYADSVKGRFTISRDNAKNTVYLQMNSLKPEDTAVYYCNAYQSPDEEEYYWGQGTQVTVSS”, the “polyreactivity (PSR sort gate)” value is reported as “low polyreactivity”.
In the case of “QVQLVETGGGLVQAGGSLRISCAASGSTFVDYDMGWYRQAPGKERELVAGITTGGSTNYADSVKGRFTISRDNAKNTVYLQMNSLKPEDTAVYYCNADSYPNLVPDYLYYWYEYWGQGTQVTVSS”, the “polyreactivity (PSR sort gate)” value is reported as “low polyreactivity”.
With “QVQLVESGGGLVQAGGSLRLSCAHSASNFGIYAMGWYRQAPGKERELVAPITWYGTSTYYADSVKGRFTISRDNSKNSVYLQMNSLKPEDTAVYYCATAYIQVSATFYEYEYWGQGTQVTVSS” the “polyreactivity (PSR sort gate)” value was “low polyreactivity”.
With “QVQLVESGGGLVQAGGSLRLSCAASGYIFYYNTMGWYRQAPGKERELVAAIRSSGGSTYYADSVKGRFTISRDNAKNTVYLQMNSLKPEDTAVYYCAARPYRTKLIYGYWGQGTQVTVSS” the “polyreactivity (PSR sort gate)” value was “high polyreactivity”.
With “QVQLVESGGGLVQAGGSLRLSCAASGITFGQYAMGWYRQAPGKERELVAVITSGGDTYYADSVKGRFTISRDNAKNTVYLQINSLKPEDTAVYYCNADDDLTSIYRYDYWGQGTQVTVSS” the “polyreactivity (PSR sort gate)” value was “low polyreactivity”.
In the case of “QVQLVESGGGLVQAGGSLRLSCAASGSIFIYYTMGWYRQAPGKERELVAAISWRGGRTYYADSVKGRFTISRDNAKNTVYLQMNSLKPEDTAVYYCNAQPSVYYGRWGLNYGYWGQGTQVTVSS”, the “polyreactivity (PSR sort gate)” value is reported as “high polyreactivity”.
In the case of “QVHLVESAVGLVQAGGSLRLSCAASASTFPSYAMGWYRQAPGKERELVAAINSGGGTNYADSVKGRFTISRDNAKNTVYLQMNSLKPEDTAVYYCAKSRYDYTKTEGGYWGQGTQVTVSS”, the “polyreactivity (PSR sort gate)” value is reported as “low polyreactivity”.
